The target in assay [1] is T1, hNotch3 (EGF5-12, residues 197-505), biotinylated (human, UniProt Q9UM47 197-505, Biotinylated in vitro by BirA at the C-terminal BAP-tag (tag not in the letters).).
T1 construct: Immobilised on a streptavidin chip for SPR
T1 sequence: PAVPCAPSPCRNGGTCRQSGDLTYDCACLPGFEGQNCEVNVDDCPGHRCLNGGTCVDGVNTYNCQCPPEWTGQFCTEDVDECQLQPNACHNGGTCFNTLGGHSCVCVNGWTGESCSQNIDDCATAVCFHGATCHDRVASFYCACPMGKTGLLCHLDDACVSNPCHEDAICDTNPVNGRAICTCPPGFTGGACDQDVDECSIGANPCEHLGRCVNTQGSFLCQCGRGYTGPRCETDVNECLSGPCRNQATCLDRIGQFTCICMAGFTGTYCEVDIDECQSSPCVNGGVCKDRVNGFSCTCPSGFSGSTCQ
The experiment in a line: SPR (Biacore T200), biotinylated Notch fragment on streptavidin chip, DLL4 protein (N-EGF5) in flow, 1:1 model. As for the experimental part: (§1) The rapid dissociation of WT DLL4 precluded kinetic fitting of the binding data.
(§2) Equilibrium dissociation constants were determined by surface plasmon resonance using a Biacore T200 instrument (GE Healthcare). Approximately 100 resonance units (RU) of biotinylated Notch extracellular fragments (Notch1 (EGF6-13), Notch2 (EGF6-13), Notch3 (EGF5-12), Notch4 (7-12), and mouse Notch1 (EGF6-13)) were immobilized on individual flow cells at 5 μl/min using a streptavidin-coated sensor chip (Series S Sensor chip SA, GE Healthcare). Three-fold serial dilutions of recombinant DLL4 proteins (N-EGF5) starting at 50 μM (WT DLL4), 18 μM (DLL4.v2), and 6 μM (DLL4.v1 and Delta^MAX) were flowed over the chip at 25° C. in SPR buffer (20 mM HEPES pH 7.4, 150 mM NaCl, 1 mM calcium chloride, 0.1% BSA supplemented with 0.005% surfactant P20). Association (“on-rate”) and dissociation (“off-rate”) phases were performed at 10 μl/min for 120 seconds and 300 seconds, respectively. […] Data collection rate was performed at 10 Hz, and curves were reference-subtracted from a flow cell containing 100 RU of a negative control non-related protein (biotinylated mouse RNF43 PA domain). The maximum RU for each experiment was normalized to a value of 100% and plotted as a function of concentration using Prism 9 software (GraphPad). Steady-state binding and kinetic curves were fitted using the Biacore T200 evaluation software to a 1:1 Langmuir model to determine the KD values.
In general terms: SPR reads the build-up and loss of mass on a sensor chip optically.

Assay [2] has as its target T2, hNotch4 (EGF7-12, residues 276-511), biotinylated (human, UniProt Q99466 276-511, Biotinylated in vitro by BirA at the C-terminal BAP-tag (tag not in the letters).).
T2 construct: Immobilised on a streptavidin chip for SPR; also called Notch4 (7-12)
T2 sequence: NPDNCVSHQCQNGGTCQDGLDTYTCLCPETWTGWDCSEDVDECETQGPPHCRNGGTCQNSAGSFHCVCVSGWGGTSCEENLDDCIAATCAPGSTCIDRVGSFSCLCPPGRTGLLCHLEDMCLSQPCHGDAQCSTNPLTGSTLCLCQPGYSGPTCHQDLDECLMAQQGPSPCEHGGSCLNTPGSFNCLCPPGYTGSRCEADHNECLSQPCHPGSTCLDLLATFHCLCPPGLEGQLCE
Described as above. Here is the method:
as §1, §2

For assay [3], the target named is T3, mouse Notch1 (EGF6-13, residues 221-526), biotinylated (mouse, UniProt Q01705 221-526, Biotinylated in vitro by BirA at the C-terminal BAP-tag (tag not in the letters).).
T3 construct: Immobilised on a streptavidin chip for SPR; also called mNotch1 EGF6-13; mNotch1 (6-13)
T3 sequence: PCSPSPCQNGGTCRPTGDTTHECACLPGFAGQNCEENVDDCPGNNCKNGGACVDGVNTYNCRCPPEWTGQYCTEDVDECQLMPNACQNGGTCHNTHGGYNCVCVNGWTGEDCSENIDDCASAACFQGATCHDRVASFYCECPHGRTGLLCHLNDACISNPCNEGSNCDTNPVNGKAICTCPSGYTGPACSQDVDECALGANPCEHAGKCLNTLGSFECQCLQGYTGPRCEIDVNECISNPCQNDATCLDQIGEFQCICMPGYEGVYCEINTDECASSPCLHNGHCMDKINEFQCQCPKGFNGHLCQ
Kind of assay: SPR steady-state binding isotherm, biotinylated mNotch1 (EGF6-13) on a streptavidin chip, DLL4 variant as analyte, response normalized to the maximum (100%). An excerpt: Extended Data FIG. 5. Quantitation of mNotch1 binding to DLL4 variants, ligand adsorption, and Notch surface expression. a, SPR binding isotherms were fitted to a 1:1 binding model to determine the binding affinity between mNotch1 (6-13) and each DLL4 variant. b, Determination of plate adsorption for WT DLL4 and Delta^MAX by ELISA. Data represent mean values±s.d. of three biological replicates. c, Binding assay of WT DLL4 and Delta^MAX tetramers to Notch1 overexpressing CHO-K1 N1-Gal4 cells was measured by flow cytometry. Data represent mean values±s.d. of three biological replicates. d, The level of Notch1 expression on the surface of cell lines used in this study was determined by flow cytometry. Data represent mean values±s.d. of three biological replicates. e, Percentage of CD8⁺ T cells expressing Notch1 (upper graph) and Notch2 (bottom graph) on cell surface determined by flow cytometry after stimulation with K32-WT DLL4, K32-Delta^MAX, or K32 for 96 hours. Data represent mean values±s.e.m. of three biological replicates. Delta^MAX statistics are referred to WT DLL4. *P<0.05, ****P<0.0001 (Two-way ANOVA).
Equilibrium dissociation constants were determined by surface plasmon resonance using a Biacore T200 instrument (GE Healthcare). […]

As a reminder, the Kd is the constant that tells how readily two partners part at equilibrium. Higher therefore signals lower affinity. In general, EC50 (read off the curve) refers to the midpoint of the concentration-response curve. A lower EC50 (read off the curve) goes with greater potency.

B1: Delta^MAX (N-EGF5), non-biotinylated (ligand)
chain: SSVFQLQLQEFINERGVLASGRPCEPGCRTFFRVCLKHFQAVVSPGPCTFGTVSTPVLGTNSFAVRDDSSGGGRNPLQLPLNFTWPGTFSLIIEAWHAPGDDLRPEALPPDALISKFAIQGSLAVGQNWLLDEQTSTLTRLRYSYRVICSDNYYGDNCSRLCKKRNDYFGHYVCQPDGNPSCLPGWTGEYCQQPICLSGCHEQNGYCSKPAECLCRPGWQGRLCNECIPHPGCRHGTCSTPWQCLCDEGWGGLYCDQDLNYCTHHSPCKNGATCRNSGPRSYTCTCRPGYTGVDCELELSECDSNPCRNGGSCKDQEDGYHCLCPPGYYGLHCEHSTLSCADSPCFNGGSCRERNQGANYACECPPNFTGSNCEHHHHHHHH
notes: also called DLL4^MAX; soluble Delta^MAX
Regarding B1, the Kd in assay [1] amounted to 49 nM; in assay [2] it was 24 nM. Further, in assay [3], the “EC50 (read off the curve)” value was approximately 20 nM.

For the origin of these results see patent publication US20260055369A1 (H LEE MOFFITT CANCER CENTER AND RESEARCH INSTITUTE, published 2026).
